# Source: patent US20210292392A1
# Molecular target: full length spike (S) protein of SARS-CoV-2 (SARS-CoV-2) (UniProt P0DTC2)
# Assay: cell-based or functional assay
substance,measurement,value
VRC01 (antibody),Neutralizing activity (%) Mean at 0.0228624 µg/ml,13.2%
same,Neutralizing activity (%) Mean at 0.0685871 µg/ml,10.4%
same,Neutralizing activity (%) Mean at 0.2057613 µg/ml,14.4%
same,Neutralizing activity (%) Mean at 0.6172839 µg/ml,24.9%
same,Neutralizing activity (%) Mean at 1.851852 µg/ml,8.1%
same,Neutralizing activity (%) Mean at 5.555555 µg/ml,27.1%
same,Neutralizing activity (%) Mean at 16.66667 µg/ml,26.6%
same,Neutralizing activity (%) Mean at 50 µg/ml,33.9%
